Substitutions are numbered along the chain they refer to. In names and notes the source's numbering stands.

In the experiment the target is T1, recombinant full-length human RAD51 (Bio Academia) (human, UniProt Q06609 1-339).
T1 construct: human RAD51 recombinase, recombinant full-length protein; also called hRAD51; source: bought: Bio Academia
T1 sequence (looked up): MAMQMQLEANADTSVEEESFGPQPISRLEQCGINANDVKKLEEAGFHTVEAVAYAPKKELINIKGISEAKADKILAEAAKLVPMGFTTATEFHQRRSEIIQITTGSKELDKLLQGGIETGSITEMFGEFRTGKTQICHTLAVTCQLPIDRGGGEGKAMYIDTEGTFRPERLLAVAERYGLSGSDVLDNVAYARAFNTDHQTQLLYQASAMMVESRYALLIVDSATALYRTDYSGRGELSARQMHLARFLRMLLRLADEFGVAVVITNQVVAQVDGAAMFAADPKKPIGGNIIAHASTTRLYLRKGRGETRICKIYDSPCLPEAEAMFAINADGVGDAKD
The experiment is described as follows: pull-down; 300 nM GST-fused peptides with 53.6 nM hRAD51 in 50 mM Tris pH 8.0, 150 mM NaCl, 1 mM EDTA, 1 mM DTT, 4°C, 1 h; captured on glutathione sepharose 4B; western blot with anti-RAD51. The following applies: both partners purified. For orientation: In western blotting, separated proteins are transferred to a membrane and probed.

B1: GST-fused wild-type canine BRC3 (cBRC3) (aa 1410-1482) peptide (domain or fragment, UniProt Q8MKI9 1410-1482, looked up)
chain: GQNIKDFDTFYLSFQTASRKNIRVSKESLNKARSLLNQKWTEEELNNFSDSLNSELLPGIDIKKTDISNHEVI
notes: BRC repeat 3 region of canine BRCA2, aa 1410-1482; also called GST-cBRC3; wild-type cBRC3; source: Rosetta II cells (pGEX6p-1), purified (glutathione sepharose 4B)
As for B1, the binding result is recorded as “binds”.

B2: GST-fused K1435R mutant canine BRC3 (aa 1410-1482) peptide (domain or fragment, UniProt Q8MKI9 1410-1482, looked up)
chain: B1 chain with K26R
notes: BRC repeat 3 region of canine BRCA2, aa 1410-1482, with the mammary tumor-derived mutation K1435R; Mutation reported from canine mammary tumor samples; also called K1435R mutant cBRC3; GST-cBRC3 with the K1435R mutation; source: Rosetta II cells (pGEX6p-1), purified (glutathione sepharose 4B)
As to B2, the binding result is “binds”.

The values are drawn from PMC3470543, “Effects of the Missense Mutations in Canine BRCA2 on BRC Repeat 3 Functions and Comparative Analyses between Canine and Human BRC Repeat 3” (PLoS ONE, 2012).
